{"source": "IntAct's records for PubMed 23245941", "parents": {"B1": {"name": "Transcriptional coactivator YAP1 (Homo sapiens), P46937-3 (parent)", "chain": "MDPGQQPPPQPAPQGQGQPPSQPPQGQGPPSGPGQPAPAATQAAPQAPPAGHQIVHVRGDSETDLEALFNAVMNPKTANVPQTVPMRLRKLPDSFFKPPEPKSHSRQASTDAGTAGALTPQHVRAHSSPASLQLGAVSPGTLTPTGVVSGPAATPTAQHLRQSSFEIPDDVPLPAGWEMAKTSSGQRYFLNHIDQTTTWQDPRKAMLSQMNVTAPTSPPVQQNMMNSASAMNQRISQSAPVKQPPPLAPQSPQGGVMGGSNSNQQQQMRLQQLQMEKERLRLKQQELLRQVRPQELALRSQLPTLEQDGGTQNPVSSPGMSQELRTMTTNSSDPFLNSGTYHSRDESTDSGLSMSSYSVPRTPDDFLNSVDEMDTGDTINQSTLPSQQNRFPDYLEAIPGTNVDLGTLEGDGMNIEGEELMPSLQEALSSDILNDMESVLAATKLDKESFLTWL"}}, "data": [{"variants_of": "B1", "conditions": "with ctnb1_human CTNNB1, P35222", "values": [{"variant": "Y357F", "effect of a mutation on the interaction": "increasing interaction strength"}]}]}
